Experimental data from US11938198B2, “Treatment of heart disease by disruption of the anchoring of PP2A” (University of Miami, priority 2019, dated 2024).
Positions count from the first letter of the chain named. Names and notes keep the numbering of the source.

How the values were obtained:
[1] = test system: PDE4D3 Ser-54; assay: PDE4D3 Ser-54 phosphorylation in mAKAP immunoprecipitates from transfected HEK293 cells (phospho-specific immunoblot); format: cell-based
[2] = test system: adult rat ventricular myocytes (ARVM); assay: ARVM morphologic hypertrophy (cell width and length by immunocytochemistry); format: cell-based; details: for PE-induced ARVM hypertrophy / basal ARVM morphology: adenoviral expression; for PE-induced ARVM hypertrophy: 20 μM PE 24 hours; for basal ARVM morphology: no drug
Protocol: Adult rat ventricular myocyte isolation and culture: 2-3 month old rats were anesthetized using Ketamine (80-100 mg/kg) and Xylazine (5-10 mg/kg) IP following 1000 U heparinization for cardiac excision. The heart was transferred immediately into chilled perfusion buffer (NaCl 120 mM, KCl 5.4 mM, Na2HPO4·7H2O 1.2 mM, NaHCO320.0 mM, MgCl2·6H2O 1.6 mM, Taurine 5 mM, Glucose 5.6 mM, 2,3-Butanedione monoxime 10 mM) pre-equilibrated with 95% O2 and 5% CO2. After removal of extraneous tissue, the heart was attached via the aorta to a Harvard Langendorff apparatus cannula. Ca^2+-free perfusion was used to flush out remaining blood with a constant rate of 8-10 mL/min at 37° C. The heart was then digested through circulatory perfusion with 50 mL perfusion buffer containing 125 mg type II collagenase (Worthington, 245 U/mg), 0.1 mg protease (Sigma type XIV) and 0.1% BSA. After perfusion, the atria were removed and the ventricular myocytes dissociated by slicing and repetitive pipetting. The debris was filtered by a 200 μm nylon mesh, and the myocytes collected by one minute centrifugation at 50 g. Ca^2+ concentration in the buffer was gradually recovered to 1.8 mM and the myocytes were resuspended in ACCT medium (M199 Medium (Invitrogen 11150-059), Creatine 5 mM, L-carnitine 2 mM, Taurine 5 mM, HEPES 25 mM, 2,3-Butanedione monoxime 10 mM, BSA 0.2% and 1×Insulin-Transferrin-Selenium Supplement) and plated on 10 μg/ml laminin pre-coated dishes. Cells were washed with ACCT medium 1.5 hours after plating and subjected to adenoviral infection or siRNA transfection, in which 100-200 Multiplicity of Infection (MOI) of adenovirus and 100 nmol/L siRNA mixed with Dharmafect1 (Dharmacon) were used, respectively. Adrenergic agonists were added the next day, with biochemical assay and morphological measurement performed after 24 hours of stimulation.
Immunocytochemistry: Myocytes on coverslips were fixed in 3.7% formaldehyde in PBS for 1 hour, permeabilized with 0.3% Triton X-100, and blocked in PBS containing 0.2% BSA and 1% horse serum. The slides were then sequentially incubated for 1 hour with primary and Alexa fluorescent dye-conjugated specific-secondary antibodies (Invitrogen, 1:1000) diluted in blocking buffer. The slips were washed three times with blocking buffer. 1 μg/mL Hoechst 33258 was included in the last wash stop to label nuclei. Slides were sealed in SlowFade Gold antifade buffer (Invitrogen, S36938) for fluorescent microscopy. Wide-field images were acquired using a Leica DM4000 Microscope.

[3] = target: T1, PP2A (Homo sapiens, UniProt P30153+P67775); assay: myc-tag immunoprecipitation of mAKAP fragments from HEK293 cells with phosphatase assay; format: binding; details: myc-tagged fragments expressed in HEK293 cells
T1 construct: endogenous in cells; host or cells: HEK293
T1 sequence (P67775 whole entry, the tested form may be a part): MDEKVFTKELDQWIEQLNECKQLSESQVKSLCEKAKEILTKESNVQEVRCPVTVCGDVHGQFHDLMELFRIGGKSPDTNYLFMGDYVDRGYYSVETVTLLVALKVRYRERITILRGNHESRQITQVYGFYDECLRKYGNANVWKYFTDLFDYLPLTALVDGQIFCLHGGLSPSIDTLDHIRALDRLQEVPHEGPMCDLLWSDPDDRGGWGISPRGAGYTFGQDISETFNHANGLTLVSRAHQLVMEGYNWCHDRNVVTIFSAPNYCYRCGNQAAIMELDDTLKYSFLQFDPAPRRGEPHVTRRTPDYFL
T1 sequence (P30153 whole entry, the tested form may be a part): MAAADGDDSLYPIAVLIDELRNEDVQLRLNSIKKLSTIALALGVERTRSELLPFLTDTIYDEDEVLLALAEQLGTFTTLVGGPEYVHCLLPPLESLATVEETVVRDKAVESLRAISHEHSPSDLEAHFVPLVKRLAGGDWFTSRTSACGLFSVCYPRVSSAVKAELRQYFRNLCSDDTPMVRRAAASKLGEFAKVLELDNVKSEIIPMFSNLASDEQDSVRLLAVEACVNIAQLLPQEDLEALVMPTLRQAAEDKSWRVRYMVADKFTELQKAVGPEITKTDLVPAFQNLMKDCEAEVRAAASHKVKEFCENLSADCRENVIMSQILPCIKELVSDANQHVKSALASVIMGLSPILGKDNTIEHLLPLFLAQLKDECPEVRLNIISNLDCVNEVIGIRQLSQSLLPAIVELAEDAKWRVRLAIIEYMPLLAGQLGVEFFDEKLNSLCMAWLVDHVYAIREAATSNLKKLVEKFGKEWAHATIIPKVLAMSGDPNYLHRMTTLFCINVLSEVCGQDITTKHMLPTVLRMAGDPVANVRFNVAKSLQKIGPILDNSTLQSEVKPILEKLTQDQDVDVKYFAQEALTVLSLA
Protocol: Immunoprecipitation—HEK293 cells were used in this project as a heterologous system lacking mAKAP in which the various wildtype and mutant proteins could be easily expressed. Cells cultured on 60 mm plates were transfected at 50%-70% confluency by the calcium phosphate method, using 6 μg of each DNA construct per plate. Cells were harvested 24 hours after transfection in 0.5 ml HSE buffer (HEPES, pH 7.4, 150 mM NaCl, 5 mM EDTA, 1% Triton X-100 and protease inhibitors). Supernatants were incubated with 3 μg antibody and 15 μl prewashed protein A- or G-agarose beads. Following overnight incubation at 4° C., the immunoprecipitates were washed three times with the same buffer. Bound proteins were analyzed by immunoblotting.
To measure phosphatase activity, immunoprecipitated protein complexes were washed twice in HSE buffer and once in PP2A reaction buffer. The immunoprecipitates were incubated for 30 minutes at 30° C. in 20 μl PP2A assay buffer containing 100,000 cpm [^32P]histone in the presence and absence of inhibitors. The PP2A inhibitor (Calbiochem) was used at a concentration of 30 nM. Purified I-1 was phosphorylated by PKA before using as a specific PP1 inhibitor. Reactions were terminated by the addition of 100 μl 20% TCA followed by 10 min centrifugation. TCA supernatants containing released ^32PO4 were measured by scintillation counting. […]

[4] = target: T2, PP2A-A subunit (Homo sapiens, UniProt P30153); assay: GST-PP2A-A pull-down of GFP-tagged mAKAP fragments expressed in HEK293 cells; format: binding; details: GFP-tagged fragments in HEK293 cell extracts
T2 construct: made in house; host or cells: bacteria
T2 sequence (P30153 whole entry, the tested form may be a part): as above
Protocol: GST-pulldowns—Glutathione resin adsorbed with PP2A-A subunit GST fusion protein or GST control protein were incubated with HEK293 cell extracts. After an overnight incubation, the beads were washed three times. Bound proteins were analyzed by immunoblotting.
mAKAP residues 2083-2319 contain the PP2A binding domain. In order to map the PP2A binding site on mAKAP, a bacterially-expressed PP2A-A subunit GST-fusion protein was used to pull down GFP-tagged fragments of mAKAP expressed in HEK293 cells (FIGS. 10A & B). GST-PP2A-A consistently pulled down only fragments of mAKAP containing a domain C-terminal to residue 2085.

C=C[C@@]1(C)CC(=O)[C@]2(O)[C@@]3(C)[C@@H](O)CCC(C)(C)[C@@H]3[C@H](O)[C@H](OC(C)=O)[C@@]2(C)O1 [Fsk, forskolin]
further enhancement of PDE4D3 Ser-54 phosphorylation by forskolin ([1]; 5 μM Fsk 10 min, in the presence of OA): 1.8 fold | PDE4D3 Ser-54 phosphorylation, forskolin alone ([1]; 5 μM Fsk, absence of phosphatase inhibition): no significant effect

CC(C)NCC(O)c1ccc(O)c(O)c1 (stereo not drawn) [Iso, isoproterenol, reference compound]
ARVM length and width under chronic β-adrenergic stimulation ([2]; 10 μM Iso, 24 hours): increased both ARVM length and width

CNC[C@H](O)c1cccc(O)c1 [PE, phenylephrine, reference compound]
decrease in ARVM length/width ratio ([2]; 20 μM PE, 24 hours): 8-14% | increase in ARVM width ([2]; 20 μM PE, 24 hours): 8-10%

B1: mAKAP 1286-2312: myc-tagged mAKAP construct containing binding sites for PDE4D3, PKA and PP2A (protein)
chain: VYSLHNVELHEDSHTPFLKSSPKFTGTTQPTVLTKSLSKDSSFSSTKSLPDLLGGSGLVRPYSCHSGDLSQNSGSESGIVSEGDNEMPTNSDMSLFSMVDGSPSNPETEHPDPQMGDAANVLEQKFKDNGESIKLSSVSRASVSPVGCVNGKAGDLNSVTKHTADCLGEELQGKHDVFTFYDYSYLQGSKLKLPMIMKQPQSEKAHVEDPLLGGFYFDKKSCKAKHQASESQPDAPPHERILASAPHEMGRSAYKSSDIEKTFTGIQSARQLSLLSRSSSVESLSPGGDLFGLGIFKNGSDSLQRSTSLESWLTSYKSNEDLFSCHSSGDISVSSGSVGELSKRTLDLLNRLENIQSPSEQKIKRSVSDMTLQSSSQKMPFAGQMSLDVASSINEDSPASLTELSSSDELSLCSEDIVLHKNKIPESNASFRKRLNRSVADESDVNVSMIVNVSCTSACTDDEDDSDLLSSSTLTLTEEELCLKDEDDDSSIATDDEIYEESNLMSGLDYIKNELQTWIRPKLSLTREKKRSGVTDEIKVNKDGGGNEKANPSDTLDIEALLNGSIRCLSENNGNGKTPPRTHGSGTKGENKKSTYDVSKDPHVADMENGNIESTPEREREKPQGLPEVSENLASNVKTISESELSEYEAVMDGSEDSSVARKEFCPPNDRHPPQMGPKLQHPENQSGDCKPVQNPCPGLLSEAGVGSRQDSNGLKSLPNDAPSGARKPAGCCLLEQNETEESASISSNASCCNCKPDVFHQKDDEDCSVHDFVKEIIDMASTALKSKSQPESEVAAPTSLTQIKEKVLEHSHRPIHLRKGDFYSYLSLSSHDSDCGEVTNYIDEKSSTPLPPDAVDSGLDDKEDMDCFFEACVEDEPVNEEAGLPGALPNESAIEDGAEQKSEQKTASSPVLSDKTDLVPLSGLSPQKGADDAKEGDDVSHTSQGCAESTEPTTPSGKANAEGRSRMQGVSATPEENAASAKPKIQAFSLNAKQPKGKVAMRYPSPQTLTCKEKLVNFHEDRHSNM
modifications: left off: small tags and cut ends
co-immunoprecipitation with OA-sensitive phosphatase activity [3]: co-immunoprecipitated with OA-sensitive phosphatase activity

B2: human 2085-2319: GFP-fusion fragment of human mAKAP residues 2085-2319 (protein)
chain: TSLTQIKEKVLEHSHRPIQLRKGDFYSYLSLSSHDSDCGEVTNYIEEKSSTPLPLDTTDSGLDDKEDIECFFEACVEGDSDGEEPCFSSAPPNESAVPSEAAMPLQATACSSEFSDSSLSADDADTVALSSPSSQERAEVGKEVNGLPQTSSGCAENLEFTPSKLDSEKESSGKPGESGMPEEHNAASAKSKVQDLSLKANQPTDKAALHPSPKTLTCEENLLNLHEKRHRNMHR
modifications: left off: large carriers
binding to GST-PP2A-A (pull-down) [4]: bound GST-PP2A-A

B3: rat mAKAP 1835-2312: GFP-fusion fragment of rat mAKAP (protein)
chain: ANPSDTLDIEALLNGSIRCLSENNGNGKTPPRTHGSGTKGENKKSTYDVSKDPHVADMENGNIESTPEREREKPQGLPEVSENLASNVKTISESELSEYEAVMDGSEDSSVARKEFCPPNDRHPPQMGPKLQHPENQSGDCKPVQNPCPGLLSEAGVGSRQDSNGLKSLPNDAPSGARKPAGCCLLEQNETEESASISSNASCCNCKPDVFHQKDDEDCSVHDFVKEIIDMASTALKSKSQPESEVAAPTSLTQIKEKVLEHSHRPIHLRKGDFYSYLSLSSHDSDCGEVTNYIDEKSSTPLPPDAVDSGLDDKEDMDCFFEACVEDEPVNEEAGLPGALPNESAIEDGAEQKSEQKTASSPVLSDKTDLVPLSGLSPQKGADDAKEGDDVSHTSQGCAESTEPTTPSGKANAEGRSRMQGVSATPEENAASAKPKIQAFSLNAKQPKGKVAMRYPSPQTLTCKEKLVNFHEDRHSNM
modifications: left off: large carriers
binding to GST-PP2A-A (pull-down) [4]: bound GST-PP2A-A

B4: SRF S103D: SRF phosphomimetic mutant expressed by adenovirus (protein, UniProt P11831 1-508, looked up, variant S103D)
Serum response factor: MLPTQAGAAAALGRGSALGGSLNRTPTGRPGGGGGTRGANGGRVPGNGAGLGPGRLEREAAAAAATTPAPTAGALYSGSEGDSESGEEEELGAERRGLKRSLDEMEIGMVVGGPEASAAATGGYGPVSGAVSGAKPGKKTRGRVKIKMEFIDNKLRRYTTFSKRKTGIMKKAYELSTLTGTQVLLLVASETGHVYTFATRKLQPMITSETGKALIQTCLNSPDSPPRSDPTTDQRMSATGFEETDLTYQVSESDSSGETKDTLKPAFTVTNLPGTTSTIQTAPSTSTTMQVSSGPSFPITNYLAPVSASVSPSAVSSANGTVLKSTGSGPVSSGGLMQLPTSFTLMPGGAVAQQVPVQAIQVHQAPQQASPSRDSSTDLTQTSSSGTVTLPATIMTSSVPTTVGGHMMYPSPHAVMYAPTSGLGDGSLTVLNAFSQAPSTMQVSHSQVQEPGGVPQVFLTASSGTVQIPVSAVQLHQMAVIGQQAGSSSNLTELQVVNLDTAHSTKSE
PE-induced ARVM hypertrophy [2]: did not enhance nor diminish | basal ARVM morphology [2]: increased ARVM width

B5: SRF S103A: SRF Ser103-to-alanine mutant expressed by adenovirus (protein, UniProt P11831 1-508, looked up, variant S103A)
Serum response factor: B4 Serum response factor with D103A
PE-induced ARVM hypertrophy [2]: inhibited the PE-induced concentric hypertrophy | basal ARVM morphology [2]: did not affect basal myocyte size
